Results on two molecules are retold here after patent US20090226372A1 (SANFORD BURNHAM MEDICAL RESEARCH INSTITUTE, published 2009).

Experiment [1] deals with T1, wild-type NRP-1 expressed on transiently transfected M21 melanoma cells (UniProt O14786 22-923).
T1 construct: whole, on cells; the printed SKET at 346-349 fits human NRP-1; also called wild type NRP-1 cDNA in pcDNA3.1(+)
Description: phage incubated with M21 cells transiently transfected with NRP-1, immunostaining and confocal imaging.

For experiment [2], the target named is T2, triple mutant S346A-E348A-T349A NRP-1 expressed on transiently transfected M21 melanoma cells (UniProt O14786 22-923, limits assumed).
T2 construct: whole, on cells; The stated codon change SKET to AKAA gives T349A; also called Mutant NRP-1
The experiment can be described thus: phage binding to transiently transfected M21 melanoma cells, titration.

T1 sequence (O14786 22-923 limits assumed): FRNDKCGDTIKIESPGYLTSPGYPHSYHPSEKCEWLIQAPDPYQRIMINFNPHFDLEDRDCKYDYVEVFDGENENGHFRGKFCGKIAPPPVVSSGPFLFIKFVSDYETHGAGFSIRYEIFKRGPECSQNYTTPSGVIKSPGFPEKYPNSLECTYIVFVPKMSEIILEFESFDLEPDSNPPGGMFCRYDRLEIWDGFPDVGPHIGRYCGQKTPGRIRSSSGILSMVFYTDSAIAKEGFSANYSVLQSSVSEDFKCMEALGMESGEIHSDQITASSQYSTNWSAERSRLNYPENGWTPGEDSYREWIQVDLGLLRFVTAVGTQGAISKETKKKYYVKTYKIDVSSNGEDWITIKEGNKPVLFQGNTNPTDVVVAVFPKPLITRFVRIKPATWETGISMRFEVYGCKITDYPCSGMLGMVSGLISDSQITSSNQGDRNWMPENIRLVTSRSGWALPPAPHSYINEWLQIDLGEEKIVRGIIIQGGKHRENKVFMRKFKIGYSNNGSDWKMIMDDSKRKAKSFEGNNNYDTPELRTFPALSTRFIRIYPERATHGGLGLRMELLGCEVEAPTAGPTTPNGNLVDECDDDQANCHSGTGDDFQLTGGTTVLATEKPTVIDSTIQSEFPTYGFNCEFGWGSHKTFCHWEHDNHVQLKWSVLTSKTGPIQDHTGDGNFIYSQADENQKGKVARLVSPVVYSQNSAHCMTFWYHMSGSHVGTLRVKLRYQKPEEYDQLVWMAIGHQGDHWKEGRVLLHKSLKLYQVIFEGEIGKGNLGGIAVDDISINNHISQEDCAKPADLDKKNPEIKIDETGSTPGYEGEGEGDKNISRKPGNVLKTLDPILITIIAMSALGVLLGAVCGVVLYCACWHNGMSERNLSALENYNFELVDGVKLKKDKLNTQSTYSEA

B1: T7 phage displaying RPARPARA (SEQ ID NO:3) (peptide)
chain: RPARPARA
notes: not shown: T7 bacteriophage major coat protein gp10 (T7-select display system); Limits
For the molecule B1, the binding result in experiment [1] was “no binding”.

B2: T7 phage displaying RPARPAR (SEQ ID NO:2) (peptide)
chain: RPARPAR
notes: also called RPARPAR phage; RPARPAR T7; not shown: T7 bacteriophage major coat protein gp10 (T7-select display system); Limits
Consider B2, for which the binding result in experiment [2] is given as “no binding”.
